The text below walks through data of patent US20060141569A1, “Compositions and methods for the assay of G-protein coupled receptors and their ligands” (priority 2004, published 2006).

The experiment has as its target human CRF1 receptor (human) (UniProt P34998). Nature of the experiment: cell-based or functional assay.

Sequence of human CRF1 receptor (human) (P34998 24-415): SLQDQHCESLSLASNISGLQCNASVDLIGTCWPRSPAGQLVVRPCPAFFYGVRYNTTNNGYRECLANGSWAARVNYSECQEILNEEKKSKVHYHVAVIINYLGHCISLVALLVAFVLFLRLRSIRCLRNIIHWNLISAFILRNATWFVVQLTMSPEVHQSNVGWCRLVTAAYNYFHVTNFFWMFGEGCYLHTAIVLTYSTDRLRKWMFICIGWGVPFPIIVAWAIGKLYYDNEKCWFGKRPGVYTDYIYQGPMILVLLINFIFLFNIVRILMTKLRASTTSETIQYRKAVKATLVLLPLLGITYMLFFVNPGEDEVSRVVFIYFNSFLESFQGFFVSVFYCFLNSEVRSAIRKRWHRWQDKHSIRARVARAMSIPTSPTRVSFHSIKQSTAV

On to “sauvagine (from UniProt P01144 1-40) (peptide)”, for which the FLIPR Ca^2+ response EC50, CHEM-1 cells amounted to 12 nM; the FLIPR EC50, CRF1/CHEM-1 cells turned out to be 10 nM; the cAMP response EC50, CHEM-1 cells was determined as 4.9 nM; the cAMP response EC50, CHO cells came out at 8.4 nM.
